# Source: patent publication US20240092919A1 (Ablynx, published 2024)
# T1: Cynomolgus TCR(AEA41865/AEA41866)-zipper protein (cynomolgus monkey)
# T1 construct: also called cyTCR-zipper protein; cynoTCR zipper
# T1 TCR alpha: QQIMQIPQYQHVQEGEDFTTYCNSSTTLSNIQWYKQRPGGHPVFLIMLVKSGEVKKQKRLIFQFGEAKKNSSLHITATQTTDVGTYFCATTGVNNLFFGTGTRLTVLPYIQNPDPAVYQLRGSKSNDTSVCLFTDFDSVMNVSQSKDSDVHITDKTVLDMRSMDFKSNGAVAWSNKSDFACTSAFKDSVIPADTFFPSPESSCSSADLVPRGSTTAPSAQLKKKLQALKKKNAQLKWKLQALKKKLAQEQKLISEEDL
# T1 TCR beta: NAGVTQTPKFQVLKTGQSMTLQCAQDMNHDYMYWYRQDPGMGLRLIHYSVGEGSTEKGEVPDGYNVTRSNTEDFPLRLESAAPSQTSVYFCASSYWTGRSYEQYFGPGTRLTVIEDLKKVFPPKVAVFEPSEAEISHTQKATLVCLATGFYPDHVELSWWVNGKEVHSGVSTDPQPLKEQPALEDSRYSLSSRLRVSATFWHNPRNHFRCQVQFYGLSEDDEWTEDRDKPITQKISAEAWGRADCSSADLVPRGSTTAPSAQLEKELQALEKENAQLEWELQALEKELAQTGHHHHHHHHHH
# T2: Human T cell receptor on human primary T cells (human, UniProt P01848 1-140; P01850 1-176)
# T2 TCR alpha (looked up): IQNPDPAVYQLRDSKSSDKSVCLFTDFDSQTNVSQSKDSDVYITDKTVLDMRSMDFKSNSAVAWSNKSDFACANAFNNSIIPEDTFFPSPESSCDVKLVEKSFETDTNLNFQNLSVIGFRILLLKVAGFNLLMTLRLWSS
# T2 TCR beta (looked up): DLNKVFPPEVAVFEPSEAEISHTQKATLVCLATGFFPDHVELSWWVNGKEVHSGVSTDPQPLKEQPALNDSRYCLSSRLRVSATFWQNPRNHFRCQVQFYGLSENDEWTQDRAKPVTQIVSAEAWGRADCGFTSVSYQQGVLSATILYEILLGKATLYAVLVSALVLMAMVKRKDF
# B1: T017000637 (bispecific antibody)
# chain: DVQLVESGGGLVQAGGSLRLSCAASGITSKINDMGWYRQTPGNYREWVASITATGTTNYRDSVKGRFTISRDNAKSTVYLQMNSLKPEDTTVYYCNTFPPISNFWGQGTLVTVSSGGGGSGGGGSGGGGSGGGGSGGGGSGGGGSGGGGSEVQLVESGGGVVQPGGSLRLSCVASWDVHQINFYGWYRQAPGKEREKVAHISIGDQTDYADSAKGRFTISRDESKNTVYLQMNSLRPEDTALYYCRALSRIWPYDYWGQGTLVTVSSA
# notes: also called A0110056A10(E1D)-35GS-T0170056G05(L11V, G26W, K30Q, L34Y, M77T, K83R, V89L, F91Y, M95L, Y99W)-A
# Experiments:
# [1] = molecular target: Cynomolgus T cell receptor on cynomolgus primary T cells (cynomolgus monkey); test: cell-based or functional assay; further: test concentration or dose not given here
# [2] = molecular target: T1, Cynomolgus …; test: SPR, ProteOn XPR36, 25 C, immobilised cyTCR-zipper
# From the text: HuTCR-zipper or cyTCR-zipper protein was immobilized on a GLC sensor chip (between 100-200 RU) via amine coupling chemistry, using EDC/NHS for activation of the carboxyl groups on the chip surface (running buffer: HBS-EP+, pH7.4). […] Processed sensorgrams were fitted with the Langmuir model (1:1 interaction) using ProteOn Manager 3.1.0 (Version 3.1.0.6) software.
# [3] = molecular target: T2, Human T cell receptor on human primary …; test: cell-based or functional assay
# Wherever % Lysis, T cell mediated MOLM-13 cell killing, human primary T cells, E:T 10:1 is given: test concentration or dose not given here.
binder,measurement,setting,value
B1,"% Lysis, T cell mediated MOLM-13 cell killing, cynomolgus primary T cells, E:T 10:1",[1],17%
same,binding result,[2],no binding (tested: injected between 4.1 nM and 1000 nM)
same,"% Lysis, T cell mediated MOLM-13 cell killing, human primary T cells, E:T 10:1",[3],0%
